Laboratory results taken from patent publication US20160068605A1 (Janssen / Centocor, published 2016).

Legend:
[1] = target: T1, Recombinant human CD123 SP1 ECD-His tag protein (human, UniProt P26951 20-305); assay: SPR ProteOn, captured mAb
T1 construct: bought from R&D Systems (#301-R3/CF); biotinylated for some assays; also called rhCD123 SP1; huCD123 ECD SP1
T1 sequence: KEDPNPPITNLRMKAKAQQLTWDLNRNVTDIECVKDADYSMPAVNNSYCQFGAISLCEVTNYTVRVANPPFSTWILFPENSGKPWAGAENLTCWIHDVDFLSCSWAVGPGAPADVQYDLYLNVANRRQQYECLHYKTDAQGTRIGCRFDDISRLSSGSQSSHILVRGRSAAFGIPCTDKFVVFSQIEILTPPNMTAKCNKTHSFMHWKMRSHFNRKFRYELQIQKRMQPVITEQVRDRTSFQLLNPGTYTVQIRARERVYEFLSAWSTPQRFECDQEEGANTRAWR
Description: (§1) The biosensor surface was prepared by covalently coupling Goat anti-Human IgG (Fc) to the surface of a GLC chip (BioRad) using the manufacturer instructions for amine-coupling chemistry. […] The RU immobilized also included a goat anti-mouse Fc antibody that was added to capture other antibodies not included in the ones reported here. Since the mixture was 1:1 about 50% of these RU immobilized are expected to be goat anti-human Fc. The kinetic experiments were performed at 25° C. in running buffer (PBS pH 7.4, 0.005% P20, 3 mM EDTA). […] The reference spots (Goat anti-Human IgG (Fc)-modified surface) containing no candidate captured were used as a reference surface. Capture of mAb was followed by 3 min injection (association phase) of antigen at 40 μL/min, followed by 10 min of buffer flow (dissociation phase). […] Data was processed on the instrument software. Double reference subtraction of the data was performed by subtracting the curves generated by buffer injection from the reference-subtracted curves for analyte injections. Kinetic analysis of the data was performed using 1:1 Langmuir binding model with group fit. The result for each mAb was reported in the format of Kₐ (kon or on-rate), Kd (koff or off-rate), KD (Equilibrium dissociation constant) (Table 5).

[2] = target: T2, Recombinant human CD123 SP2 ECD protein (human, UniProt P26951 101-303); assay: SPR ProteOn, captured mAb
T2 construct: also called rhCD123 SP2; CD123 ECD SP2
T2 sequence: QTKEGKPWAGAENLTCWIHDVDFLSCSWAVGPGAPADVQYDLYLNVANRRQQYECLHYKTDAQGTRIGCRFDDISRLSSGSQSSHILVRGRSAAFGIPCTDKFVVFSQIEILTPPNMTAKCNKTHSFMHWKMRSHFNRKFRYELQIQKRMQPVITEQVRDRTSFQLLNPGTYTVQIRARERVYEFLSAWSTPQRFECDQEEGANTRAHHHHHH
Description: as §1

[3] = target: T3, cyno CD123 ECD displayed on pDisplay-transfected cells (cynomolgus monkey); assay: MSD cell binding on 293F pDisplay cells; fold change over background; parental 293F cells as control
T3 construct: ECD anchored on the surface of stably transfected HEK293 cells; also called cynoCD123 SP1 cells; cynoCD123 cells
T3 chain: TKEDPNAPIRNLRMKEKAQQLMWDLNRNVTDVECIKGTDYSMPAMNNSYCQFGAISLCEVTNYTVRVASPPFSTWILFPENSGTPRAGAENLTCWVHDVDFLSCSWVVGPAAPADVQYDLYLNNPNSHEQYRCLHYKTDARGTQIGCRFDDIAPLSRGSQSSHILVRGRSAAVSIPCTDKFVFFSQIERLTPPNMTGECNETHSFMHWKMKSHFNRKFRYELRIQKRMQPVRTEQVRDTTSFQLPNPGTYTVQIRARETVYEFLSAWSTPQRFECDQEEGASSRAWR
Description: (§2) The object of the screening assay was to identify antibodies that bound to cells expressing hCD123 SP1 and SP2 as well as cross reactivity with cells expressing cynoCD123 SP1.
(§3) Cells were immobilized and phages were assayed in triplicate. […] 5000 cells per well were plated into a 384 well plate (MA6000, cat. L21XB, MSD) and allowed to adhere for 2 hr. Cells were then blocked with 20% FBS in PBS (Gibco) for 15 mins. Antibody supernatants were then added and left at RT for 1 hr. Cells were washed 3 times with PBS and a ruthenium labeled secondary antibody (Jackson Immuno Research) was then added at 1 μg/mL and incubated for 1 hr at room temperature. A further washing step was then applied and 35 μL per well of MSD Read buffer T (surfactant free) was then added and incubated for 30 min for detection. Plates were then read using Sector Imager 2400 (MSD). Data was normalized to controls and graphed using GraphPad Prism Version 5. A positive binder was determined to be a hit with a signal 3× greater than background (FIGS. 2A, B and C).

[4] = target: T4, human CD123 SP2 ECD displayed on pDisplay-transfected cells (human, UniProt P26951 101-305); assay: as above
T4 construct: ECD anchored on the surface of stably transfected HEK293 cells; also called hCD123 SP2 cells; pDisplay CD123SP2
T4 sequence: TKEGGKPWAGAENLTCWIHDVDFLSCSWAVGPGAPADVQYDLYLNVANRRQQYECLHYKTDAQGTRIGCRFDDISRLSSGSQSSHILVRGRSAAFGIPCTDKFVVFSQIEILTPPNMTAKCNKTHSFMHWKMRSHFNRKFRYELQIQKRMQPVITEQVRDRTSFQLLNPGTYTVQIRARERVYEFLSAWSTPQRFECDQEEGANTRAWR
Description: as §2, §3

[5] = target: T5, cell-surface CD3 epsilon on primary cynomolgus T cells (cynomolgus monkey, UniProt Q95LI5 22-198); assay: flow cytometry competition with labeled CD3B146 on T cells
T5 construct: whole, on cells; also called cynomolgus CD3e; Cyno T-cells
Description: (§4) The format involved competition binding using a fixed concentration of labeled anti-CD3 mAb of known affinity and increasing concentrations of unlabeled test Abs (Ashkenazi A et al. PNAS: 88:10535, 1991.).

[6] = target: T6, cell-surface CD3 epsilon on primary human T cells (human, UniProt P07766 23-207); assay: as above
T6 construct: whole, on cells; part of the CD3/TCR complex on the cells
Description: as §4

T6 sequence (P07766 23-207): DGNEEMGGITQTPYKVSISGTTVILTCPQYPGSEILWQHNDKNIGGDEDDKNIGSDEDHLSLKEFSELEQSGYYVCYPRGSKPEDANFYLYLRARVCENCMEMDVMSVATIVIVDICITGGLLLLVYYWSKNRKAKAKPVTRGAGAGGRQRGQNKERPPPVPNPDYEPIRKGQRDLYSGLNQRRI
T5 sequence (Q95LI5 22-198): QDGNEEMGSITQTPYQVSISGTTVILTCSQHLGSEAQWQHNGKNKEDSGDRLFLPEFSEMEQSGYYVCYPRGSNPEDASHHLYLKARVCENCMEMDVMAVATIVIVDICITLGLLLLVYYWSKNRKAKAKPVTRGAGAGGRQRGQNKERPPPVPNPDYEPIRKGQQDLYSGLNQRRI

B1: I3RB34 (antibody, IgG1, V domains shown)
VH: QVQLVQSGAEVKKPGSSVKVSCKASGGTFSSYAISWVRQAPGQGLEWMGGIIPIFGTANYAQKFQGRVTITADESTSTAYMELSSLRSEDTAVYYCARGWSYYRLDYWGQGTLVTVSS
VL: EIVLTQSPATLSLSPGERATLSCRASQSVDKWLAWYQQKPGQAPRLLIYYASNRATGIPARFSGSGSGTDFTLTISSLEPEDFAVYYCQQFDRAPFTFGQGTKVEIK
notes: IgG1; also called 13RB34
- Kd [1]: 56.8 nM
- koff [1]: 0.0283 s⁻¹
- kon [1]: 497000 M⁻¹ s⁻¹
- binding result [2]: no binding (tested: 400 nM)
- binding result [3]: binds
- binding result [4]: no binding (tested: 10 µg/mL)

B2: I3RB24 (antibody, IgG1, V domains shown)
VH: QVQLVQSGAEVKKPGSSVKVSCKASGGTFSSYAISWVRQAPGQGLEWMGGIIPIFGTANYAQKFQGRVTITADESTSTAYMELSSLRSEDTAVYYCARHTDAWGYRLDYWGQGTLVTVSS
VL: not shown
notes: IgG1
- Kd [1]: 201 nM
- koff [1]: 0.226 s⁻¹
- kon [1]: 1.13e+06 M⁻¹ s⁻¹
- binding result [2]: no binding (tested: 400 nM)
- binding result [3]: no binding (tested: 10 µg/mL)
- binding result [4]: no binding (tested: 10 µg/mL)

B3: I3RB11 (antibody, IgG1, V domains shown)
VH: QVQLVQSGAEVKKPGSSVKVSCKASGGTFSSYGISWVRQAPGQGLEWMGGIIPIFGTANYAQKFQGRVTITADESTSTAYMELSSLRSEDTAVYYCARDLFSWRYSNFDYWGQGTLVTVSS
VL: not shown
notes: IgG1
- Kd [1]: 2.89 nM
- koff [1]: 0.00253 s⁻¹
- kon [1]: 874000 M⁻¹ s⁻¹
- binding result [2]: no binding (tested: 400 nM)
- binding result [3]: no binding (tested: 10 µg/mL)
- binding result [4]: no binding (tested: 10 µg/mL)

B4: I3RB12 (antibody, IgG1, V domains shown)
VH: QVQLVQSGAEVKKPGSSVKVSCKASGGTFSSYAISWVRQAPGQGLEWMGGIIPIFGTANYAQKFQGRVTITADESTSTAYMELSSLRSEDTAVYYCARADRVWDYYLDYWGQGTLVTVSS
VL: not shown
notes: IgG1
- Kd [1]: 9.61 nM
- koff [1]: 0.0078 s⁻¹
- kon [1]: 812000 M⁻¹ s⁻¹
- binding result [2]: no binding (tested: 400 nM)
- binding result [3]: no binding (tested: 10 µg/mL)
- binding result [4]: no binding (tested: 10 µg/mL)

B5: I3RB29 (antibody, IgG1, V domains shown)
VH: QVQLVQSGAEVKKPGSSVKVSCKASGGTFSSYAISWVRQAPGQGLEWMGGIIPIFGTANYAQKFQGRVTITADESTSTAYMELSSLRSEDTAVYYCARDSRIWSFSLDYWGQGTLVTVSS
VL: DIQMTQSPSSLSASVGDRVTITCRASQSIGEWLNWYQQKPGKAPKLLIYAASSLQSGVPSRFSGSGSGTDFTLTISSLQPEDFATYYCQQYYHFPLTFGQGTKVEIK
notes: IgG1
- Kd [1]: 5.9 nM
- koff [1]: 0.00132 s⁻¹
- kon [1]: 224000 M⁻¹ s⁻¹
- binding result [2]: no binding (tested: 400 nM)
- binding result [4]: no binding (tested: 10 µg/mL)

B6: I3RB22 (antibody, IgG1, V domains shown)
VH: QVQLVQSGAEVKKPGSSVKVSCKASGGTFSSYAISWVRQAPGQGLEWMGGIIPIFGTANYAQKFQGRVTITADESTSTAYMELSSLRSEDTAVYYCARNLFYWADSVYLDYWGQGTLVTVSS
VL: EIVLTQSPATLSLSPGERATLSCRASQSVNKWLAWYQQKPGQAPRLLIYYASNRATGIPARFSGSGSGTDFTLTISSLEPEDFAVYYCQQGIDWPRTFGQGTKVEIK
notes: IgG1
- Kd [1]: 4.12 nM
- koff [1]: 0.00106 s⁻¹
- kon [1]: 257000 M⁻¹ s⁻¹
- binding result [2]: no binding (tested: 400 nM)
- binding result [3]: no binding (tested: 10 µg/mL)
- binding result [4]: no binding (tested: 10 µg/mL)

B7: I3RB6 (antibody, IgG1, V domains shown)
VH: QVQLVQSGAEVKKPGSSVKVSCKASGGTFSSYAISWVRQAPGQGLEWMGGIIPIFGTANYAQKFQGRVTITADESTSTAYMELSSLRSEDTAVYYCARGLFNWSNVALDYWGQGTLVTVSS
VL: not shown
notes: IgG1; also called I3RB06
- Kd [1]: 11.5 nM
- koff [1]: 0.00593 s⁻¹
- kon [1]: 514000 M⁻¹ s⁻¹
- binding result [2]: no binding (tested: 400 nM)
- binding result [3]: no binding (tested: 10 µg/mL)
- binding result [4]: no binding (tested: 10 µg/mL)

B8: I3RB38 (antibody, IgG1, V domains shown)
VH: QVQLVQSGAEVKKPGSSVKVSCKASGGTFSSYGISWVRQAPGQGLEWMGGIIPIFGTANYAQKFQGRVTITADESTSTAYMELSSLRSEDTAVYYCARDLMIWRFENFDYWGQGTLVTVSS
VL: not shown
notes: IgG1
- Kd [1]: 0.49 nM
- koff [1]: 0.000434 s⁻¹
- kon [1]: 888000 M⁻¹ s⁻¹
- binding result [2]: no binding (tested: 400 nM)
- binding result [4]: no binding (tested: 10 µg/mL)

B9: I3RB7 (antibody, IgG1, V domains shown)
VH: QVQLVQSGAEVKKPGSSVKVSCKASGGTFSSYAISWVRQAPGQGLEWMGGIIPIFGTANYAQKFQGRVTITADESTSTAYMELSSLRSEDTAVYYCARGKRWLADAGDFDYWGQGTLVTVSS
VL: not shown
notes: IgG1; also called I3RB07
- Kd [1]: 15.4 nM
- koff [1]: 0.0147 s⁻¹
- kon [1]: 954000 M⁻¹ s⁻¹
- binding result [2]: no binding (tested: 400 nM)
- binding result [4]: no binding (tested: 10 µg/mL)

B10: CD123 null 4 (bispecific antibody, human IgG4 S228P, lambda, F234A L235A)
heavy: EVQLVESGGGLVQPGGSLKLSCAASGFTFNTYAMNWVRQASGKGLEWVGRIRSKYNAYATYYAASVKGRFTISRDDSKNTAYLQMNSLKTEDTAVYYCTRHGNFGNSYVSWFAYWGQGTLVTVSSASTKGPSVFPLAPCSRSTSESTAALGCLVKDYFPEPVTVSWNSGALTSGVHTFPAVLQSSGLYSLSSVVTVPSSSLGTKTYTCNVDHKPSNTKVDKRVESKYGPPCPPCPAPEAAGGPSVFLFPPKPKDTLMISRTPEVTCVVVDVSQEDPEVQFNWYVDGVEVHNAKTKPREEQFNSTYRVVSVLTVLHQDWLNGKEYKCKVSNKGLPSSIEKTISKAKGQPREPQVYTLPPSQEEMTKNQVSLTCLVKGFYPSDIAVEWESNGQPENNYKTTPPVLDSDGSFLLYSKLTVDKSRWQEGNVFSCSVMHEALHNHYTQKSLSLSLGK
light: QAVVTQEPSLTVSPGGTVTLTCRSSTGAVTTSNYANWVQQKPGQAPRGLIGGTNKRAPGTPARFSGSLLGGKAALTLSGAQPEDEAEYYCALWYSNLWVFGGGTKLTVLGQPKAAPSVTLFPPSSEELQANKATLVCLISDFYPGAVTVAWKADSSPVKAGVETTTPSKQSNNKYAASSYLSLTPEQWKSHRSYSCQVTHEGSTVEKTVAPTECS
VH: not shown
VL: not shown
notes: also called B21M IgG4 x CD3B220
- Kd [5]: 36.8 nM
- Kd [6]: 48.6 nM
